What was measured:
[1] = biological target: T1, trypsin (Bos taurus, UniProt P00760); assay: Degradation of recombinant protein by trypsin (SDS-PAGE and residual thrombin inhibition); type: in vitro ADME
T1 construct: gene PRSS1
T1 sequence (P00760 24-246): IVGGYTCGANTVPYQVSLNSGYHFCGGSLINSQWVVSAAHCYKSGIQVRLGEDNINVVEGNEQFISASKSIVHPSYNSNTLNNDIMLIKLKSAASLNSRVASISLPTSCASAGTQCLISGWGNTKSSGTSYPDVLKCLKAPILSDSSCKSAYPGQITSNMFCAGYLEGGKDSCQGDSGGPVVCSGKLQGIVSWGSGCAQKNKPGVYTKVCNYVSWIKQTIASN
Protocol: Recombinant protein (10 μM) was incubated with or without serine protease 1 μM (thrombin, plasmin, trypsin or factor Xa) in phosphate buffer 50 mM containing NaCl 150 mM and 0.1% of PEG 6000, pH 7.4 for 4, 6, 7 or 18 h at 37° C. Reaction mixtures (20 μl) were split by SDS-PAGE. (A) hydrolysis SDS-PAGE (15%) of recombinant protein by serine proteases following 6 h of incubation. (B) Percentage of thrombin inhibition by recombinant protein following 6 h of incubation with serine protease (see experimental procedures). (C) hydrolysis SDS-PAGE (15%) of recombinant protein by serine proteases following 18 h of incubation. (D) Percentage of thrombin inhibition by recombinant protein following 18 h of incubation with serine protease (see experimental procedures). Numbering of (B) and (D) corresponds to numbering of (A) and (C), respectively, and recombinant protein control is represented by CTRL. Recombinant protein (strip 1); thrombin (strip 2) and thrombin with recombinant protein (strip 3); plasmin (strip 4) and plasmin with recombinant protein (strip 5); trypsin (strip 6) and trypsin with recombinant protein (strip 7); factor Xa (strip 8) and factor Xa with recombinant protein (strip 9) and protein marker (strip 10; in A). (E) Identification of cleavage sites of thrombin in recombinant protein following 7 h of incubation. (F) Identification of cleavage sites of factor Xa in recombinant protein following 4 h of incubation. Cleavage sites of thrombin and factor Xa in recombinant protein sequence are shown in FIGS. S1 and S2, respectively. Experimental procedure for (C), (D), (E) and (F) was the same as for (A) and (B), except the incubation time and the type of serine protease used. FIG. 5 discloses “GKPQG” as SEQ ID NO: 18, “MPKGG” as SEQ ID NO: 19, and “SDAVH” as SEQ ID NO: 20.
Afterwards, it was determined whether serine proteases, like thrombin, plasmin, factor Xa and trypsin, hydrolyze recombinant protein. […] Upon addition of chromogenic substrate S-2238, the hydrolysis thereof by thrombin was monitored in spectrophotometer way. […]

[2] = biological target: thrombin (Homo sapiens, UniProt P00734); assay: Thrombin inhibition, hydrolysis of chromogenic substrate S-2238; type: biochemical; parameters: Brown and cyan colors represent heavy and light chain of thrombin respectively
[3] = from plot of Kobs versus recombinant protein concentration

B1: GKPQGHPHDALEARSDAVHTAVPKMPKGGHGGFEPIPIDYDERALEARSDAVHTAVPKMPKGGLGGFEPIPIDYDERALEARSDAVHTAVPKMPKGGHGGFEPIPIDYDERALEARSDAVHTAVPKMPKGGHGGFEPIPIDYDERALHALEHHHHHH (protein)
chain: GKPQGHPHDALEARSDAVHTAVPKMPKGGHGGFEPIPIDYDERALEARSDAVHTAVPKMPKGGLGGFEPIPIDYDERALEARSDAVHTAVPKMPKGGHGGFEPIPIDYDERALEARSDAVHTAVPKMPKGGHGGFEPIPIDYDERALHALEHHHHHH
modifications: Sculptin recombinat protein
notes: recombinant His-tagged protein modified from tick sculptin, expressed in E. coli
- SDS-PAGE strip of 20-kDa (non-digested recombinant protein) ([1]; 10 μM protein with 1 μM trypsin, 6 h at 37° C.): completely disappeared
- SDS-PAGE strip of 20-kDa (recombinant protein monomer) ([1]; 10 μM protein with 1 μM trypsin, 18 h at 37° C.): completely disappeared
- thrombin inhibition after incubation ([1]; after 18 h incubation with trypsin, diluted to 100 pM): did not inhibit thrombin
- Koff [2, 3]: 0.65±0.04×10^−3 s^−1
- Kon [2, 3]: 4.04±0.03×10^7 M^−1 s^−1
- decrease of residual activity of thrombin ([2]; recombinant protein 1 nM, thrombin 100 pM, 6 h at 37° C., pH 7.4): about 97%
- Inhibition Type ([2]; this study): Competing

Reference: patent US12187785B2, “Recombinant protein and fragments thereof, method for producing said recombinant protein, synthetic gene and use of sculptin or recombinant protein for preparing a medicament or pharmaceutical composition for the prophylaxis and/or treatment of thromboembolic diseases or as a direct and specific …” (priority 2017, dated 2025)
